Experimental findings from the RNAGym collection of RNA variant scans (doi:10.7554/elife.90254) are described below.

B1: LINE1-full (parent)
chain: UACGUAGGUGGUUUUCCCCUGAUAGUGCUAAGGGGGCCUGGAAGUUUGGACUGGGCAGAGCUCAACACAGCGUGGCAAAGUGGCUGUGGCUAGACUGCCUCUCUGGAUUCCUCGUCACUCAGCAGGGCAUCUCUGAGAGAAAUGCC

The data set covers variants of B1. The data set can be described thus: self-cleavage, relative activity (ratio to wild type); higher = more cleavage; in vitro, sequencing; the parent is a self-cleaving ribozyme.
Consider A67G C76U, for which the self-cleavage worked out at 0.62.

Take A64U G137A: the self-cleavage came to 0.24.

As for A69G G105A, the self-cleavage amounted to 0.62. For the variant A65G U96A, the self-cleavage amounted to 0.07. As for A65G A94U, the figure is 0.05; as for A67G U132A, 0.64; as for A65G U85G, 0.07.

Regarding A64U U130C, the self-cleavage amounted to 0.55.

As to A64U U130G, the self-cleavage was found to be 0.43. With A67C A117G, the self-cleavage is 0. To A65G U109G belongs 0.23. On to A65G U109C, for which the self-cleavage turned out to be 0.06.

Take A67G G83C: the self-cleavage is 0.13. To A67G G74U belongs 0.54; to A64U A117U, 0.49; to C68A C133A, 0.02. For A69G U85A, the self-cleavage is 0.09.

For the variant A64U U96C, the self-cleavage came out at 0.04. As for A67U G106A, the figure is 0.15. As for A67U C101A, the figure is 0.09; as for A69G G93U, 0.01.

On to A64U A136G, for which the self-cleavage was 0.71. For the variant A64U A136U, the self-cleavage amounted to 0.45.

As to A69G G89A, the self-cleavage worked out at 0.03. A69G A124U: the self-cleavage amounted to 0. As for A69G G106A, the figure is 0.61; as for C68U A92G, 0.05; as for C68A, 0.04. In the case of C68G, the self-cleavage was determined as 0.05. With C68U, the self-cleavage is 0.13. With C68U A129C, the self-cleavage is 0.22.

Turning to A64U C110A, the self-cleavage was found to be 0.44. Take A65G G75A: the self-cleavage came to 0.03. To A69G A129G belongs 0.58; to A69G A79G, 0.31; to A65G A67C, 0.14.

Consider A65G A67U, for which the self-cleavage worked out at 0.03. For A65G A67G, the self-cleavage was 0.09.

As for A65U A136G, the self-cleavage stood at 0.2. On to A65G U119A, for which the self-cleavage amounted to 0.05.

Turning to A69C G88A, the self-cleavage worked out at 0.01. Consider C66U U104C, for which the self-cleavage was 0.05. To A67G C95A belongs 0.07. Turning to A65G C95U, the self-cleavage came out at 0.05. Regarding A64U G144A, the self-cleavage was determined as 0.42. As for A65U A69U, the self-cleavage amounted to 0.03. As for A69C C131A, the figure is 0.09; as for A67G U109A, 0.43. Regarding A67U A107U, the self-cleavage worked out at 0.04. Take A65C G74U: the self-cleavage is 0.03. Turning to A67G G144A, the self-cleavage was determined as 0.69. As for A65U C111U, the figure is 0.24. As for C68U G135A, the figure is 0.22. Consider A67U A92U, for which the self-cleavage was 0.05.

With A67U A92G, the self-cleavage amounted to 0.04. As for A65U U119C, the figure is 0.19; as for A65U U119G, 0.45; as for C66U A107G, 0.03.

Take A69G U87A: the self-cleavage is 0.03.

As for A69G U87C, the self-cleavage was found to be 0.07. As to A69G C123U, the self-cleavage was found to be 0.45. A64U U81A: the self-cleavage was 0.85. To C66U U119C belongs 0.04. For the variant A67U A94G, the self-cleavage amounted to 0.02.

On to A65G U130C, for which the self-cleavage turned out to be 0.1. For C68U U85A, the self-cleavage amounted to 0.03. Turning to C68U U85C, the self-cleavage was 0.03. On to A69G G83U, for which the self-cleavage came to 0.15.

Regarding A69G G83A, the self-cleavage worked out at 0.18. For the variant A67U U108C, the self-cleavage was determined as 0.29. In the case of C66U, the self-cleavage amounted to 0.05. As for C66G, the self-cleavage came to 0.04. As for C66A, the figure is 0.05; as for A67G U85G, 0.12. To A67G U85C belongs 0.1; to A67G U85A, 0.08; to A67G G106U, 0.33. For the variant A64U A69U, the self-cleavage was 0.07. Consider A64U A69G, for which the self-cleavage was 0.17. On to A67G C68U, for which the self-cleavage was found to be 0.04. Turning to A67U G83A, the self-cleavage was 0.03. For A64U U119C, the self-cleavage was found to be 0.61. Turning to A67U C110U, the self-cleavage is 0.14. A65G A142G: the self-cleavage amounted to 0.06.

A67G A78U: the self-cleavage was 0.65. Regarding A69G G144A, the self-cleavage was 1.02. Take A64U G70A: the self-cleavage came to 0.07. As to A69G U73A, the self-cleavage is 0.28. As for C68U U96C, the figure is 0.04; as for A67U C99A, 0. On to A64U U85C, for which the self-cleavage stood at 0.08.

For A65G G127A, the self-cleavage is 0.05. Regarding A64U U104A, the self-cleavage turned out to be 0.29. A65G A107U: the self-cleavage turned out to be 0. As for A64U C113A, the figure is 0.17.

As for A64U C113U, the self-cleavage came to 0.28. In the case of A67U G89A, the self-cleavage was 0.03.

In the case of A65C A129G, the self-cleavage was determined as 0.09.

Consider A69C A78G, for which the self-cleavage was 0.1. C66A U115C: the self-cleavage amounted to 0.05. A65G A121G: the self-cleavage was 0.08. A67U U130C: the self-cleavage was 0.15.

Regarding A64U G114A, the self-cleavage was 0.41. On to A69C U85C, for which the self-cleavage is 0.03.

In the case of A65G C101U, the self-cleavage came to 0.04.

As to A65U A94G, the self-cleavage came out at 0.1. To C66U A117G belongs 0.05; to A69C G83A, 0.02. With A67C A94G, the self-cleavage worked out at 0. To A65C A69U belongs 0.36; to A65G G144A, 0.1. On to A65C A136G, for which the self-cleavage worked out at 0. As for A67C U104G, the self-cleavage worked out at 0.14.

With A67U A129G, the self-cleavage stood at 0.08.

For the variant A64U U100A, the self-cleavage stood at 0.23. As for A64U U100C, the self-cleavage came to 0.77. A67G G82A: the self-cleavage is 0.23. As for A69G A78G, the self-cleavage is 0.25. To A67C A92G belongs 0.05.

For the variant A64U U115C, the self-cleavage stood at 0.63. In the case of C66U A142C, the self-cleavage came out at 0.04. With A69G C111U, the self-cleavage stood at 0.47. Regarding A64U A94G, the self-cleavage was 0.09. To A64U A94C belongs 0.05. As for A67G A79G, the figure is 0.5; as for A65G, 0.06; as for A65U, 0.17. Consider A65C, for which the self-cleavage turned out to be 0.04.

As for C66U U91A, the self-cleavage stood at 0.05. Regarding A67C U130C, the self-cleavage stood at 0.04. For A69C U132A, the self-cleavage is 0.2. To A69C U132C belongs 0; to C66A A107U, 0.05. To C66A A107G belongs 0.03; to A65C G80A, 0.02; to A67U U85A, 0.05.

For the variant A67C U134C, the self-cleavage turned out to be 0.09. Take A67C U134A: the self-cleavage stood at 0.02.

On to A65G U102C, for which the self-cleavage turned out to be 0.08. On to A65G U102A, for which the self-cleavage was 0.01. As for A65G U102G, the figure is 0; as for A65G A79U, 0.04; as for A69G C99G, 0. On to A64U A79G, for which the self-cleavage came out at 0.4. On to A65G G86A, for which the self-cleavage was 0.02.

With A69C C76U, the self-cleavage came to 0.08. As for A65G G88A, the figure is 0.02.

As for A69G G125A, the self-cleavage amounted to 0.72. In the case of A69G A92G, the self-cleavage turned out to be 0.23.

With A69G A92U, the self-cleavage stood at 0.13. Consider A67G C118A, for which the self-cleavage worked out at 0.58. Take A65G A78G: the self-cleavage is 0.04.

Turning to A64U U143C, the self-cleavage amounted to 0.42. To A65G U132A belongs 0.04; to A67U U112C, 0.09; to A69G C120U, 0.44. As to A69G A94U, the self-cleavage stood at 0.13. For the variant A69G A94G, the self-cleavage is 0.14. Regarding A65U U87A, the self-cleavage was found to be 0.25. Turning to A65U U87C, the self-cleavage stood at 0.04.

With C66U U115C, the self-cleavage came to 0.01. As for A64U U87C, the self-cleavage came out at 0.12. As to A67U C90G, the self-cleavage came to 0.04. For the variant A67U U100C, the self-cleavage was found to be 0.27.

Take A67C A124G: the self-cleavage came to 0.06. In the case of A67G A124G, the self-cleavage was 0.26.

In the case of A67U A136C, the self-cleavage was found to be 0.03.
